Results taken from paper PMC10709394, “Structural basis for nucleosome binding and catalysis by the yeast Rpd3S/HDAC holoenzyme” (Cell Research, 2023).

B1: Rco1 (natural protein, yeast, UniProt Q04779 1-684, looked up)
chain: MDTSKKDTTRSPSHSNSSSPSSSSLSSSSSKEKKRPKRLSSQNVNYDLKRRKIITSEGIERSFKNEHSNLAVEDNIPEEEPKELLEKDSKGNIIKLNEPSTISEDSKVSVTGLPLNKGPSEKIKRESLWNYRKNLGGQSNNSEMTLVPSKRFTQVPKNFQDLNRNDLKTFLTENMTEESNIRSTIGWNGDIINRTRDREPESDRDNKKLSNIRTKIILSTNATYDSKSKLFGQNSIKSTSNASEKIFRDKNNSTIDFENEDFCSACNQSGSFLCCDTCPKSFHFLCLDPPIDPNNLPKGDWHCNECKFKIFINNSMATLKKIESNFIKQNNNVKIFAKLLFNIDSHNPKQFQLPNYIKETFPAVKTGSRGQYSDENDKIPLTDRQLFNTSYGQSITKLDSYNPDTHIDSNSGKFLICYKCNQTRLGSWSHPENSRLIMTCDYCQTPWHLDCVPRASFKNLGSKWKCPLHSPTKVYKKIHHCQEDNSVNYKVWKKQRLINKKNQLYYEPLQKIGYQNNGNIQIIPTTSHTDYDFNQDFKITQIDENSIKYDFFDKIYKSKMVQKRKLFQFQESLIDKLVSNGSQNGNSEDNMVKDIASLIYFQVSNNDKSSNNKSASKSNNLRKLWDLKELTNVVVPNELDSIQFNDFSSDEIKHLLYLKKIIESKPKEELLKFLNIENPENQSE
notes: Two copies stand in the holoenzyme; also called Rco1 I; Rco1 II
B2: Rpd3 (enzyme, yeast, UniProt P32561 1-433, looked up)
chain: MVYEATPFDPITVKPSDKRRVAYFYDADVGNYAYGAGHPMKPHRIRMAHSLIMNYGLYKKMEIYRAKPATKQEMCQFHTDEYIDFLSRVTPDNLEMFKRESVKFNVGDDCPVFDGLYEYCSISGGGSMEGAARLNRGKCDVAVNYAGGLHHAKKSEASGFCYLNDIVLGIIELLRYHPRVLYIDIDVHHGDGVEEAFYTTDRVMTCSFHKYGEFFPGTGELRDIGVGAGKNYAVNVPLRDGIDDATYRSVFEPVIKKIMEWYQPSAVVLQCGGDSLSGDRLGCFNLSMEGHANCVNYVKSFGIPMMVVGGGGYTMRNVARTWCFETGLLNNVVLDKDLPYNEYYEYYGPDYKLSVRPSNMFNVNTPEYLDKVMTNIFANLENTKYAPSVQLNHTPRDAEDLGDVEEDSAEAKDTKGGSQYARDLHVEHDNEFY
notes: Rpd3, yeast class I histone deacetylase, endogenous catalytic subunit of Rpd3S; Subunit of the endogenous holoenzyme; also called Rpd3/HDAC
B3: Eaf3 (natural protein, yeast, UniProt Q12432 1-401, looked up)
chain: MVDLEQEFALGGRCLAFHGPLMYEAKILKIWDPSSKMYTSIPNDKPGGSSQATKEIKPQKLGEDESIPEEIINGKCFFIHYQGWKSSWDEWVGYDRIRAYNEENIAMKKRLANEAKEAKKSLLEQQKKKKLSTSLGGPSNGGKRKGDSRSNASISKSTSQSFLTSSVSGRKSGRSSANSLHPGSSLRSSSDQNGNDDRRRSSSLSPNMLHHIAGYPTPKISLQIPIKLKSVLVDDWEYVTKDKKICRLPADVTVEMVLNKYEHEVSQELESPGSQSQLSEYCAGLKLYFDKCLGNMLLYRLERLQYDELLKKSSKDQKPLVPIRIYGAIHLLRLISVLPELISSTTMDLQSCQLLIKQTEDFLVWLLMHVDEYFNDKDPNRSDDALYVNTSSQYEGVALGM
notes: Two copies stand in the holoenzyme; also called Eaf3 I; Eaf3 II

Columns and labels:
Assay in all cases: cryo-EM structure; endogenous Rpd3S incubated with an excess of H3Kc36me3 mononucleosome (70-bp DNA link at one end), fractionated by gel filtration, concentrated, no cross-linking; 3.7 Å
Sin3 = target: T1, Sin3 (yeast, UniProt P22579 1-1536); conditions: both partners purified
T1 construct: Sin3, yeast, endogenous scaffold subunit of Rpd3S
T1 sequence (P22579 whole entry): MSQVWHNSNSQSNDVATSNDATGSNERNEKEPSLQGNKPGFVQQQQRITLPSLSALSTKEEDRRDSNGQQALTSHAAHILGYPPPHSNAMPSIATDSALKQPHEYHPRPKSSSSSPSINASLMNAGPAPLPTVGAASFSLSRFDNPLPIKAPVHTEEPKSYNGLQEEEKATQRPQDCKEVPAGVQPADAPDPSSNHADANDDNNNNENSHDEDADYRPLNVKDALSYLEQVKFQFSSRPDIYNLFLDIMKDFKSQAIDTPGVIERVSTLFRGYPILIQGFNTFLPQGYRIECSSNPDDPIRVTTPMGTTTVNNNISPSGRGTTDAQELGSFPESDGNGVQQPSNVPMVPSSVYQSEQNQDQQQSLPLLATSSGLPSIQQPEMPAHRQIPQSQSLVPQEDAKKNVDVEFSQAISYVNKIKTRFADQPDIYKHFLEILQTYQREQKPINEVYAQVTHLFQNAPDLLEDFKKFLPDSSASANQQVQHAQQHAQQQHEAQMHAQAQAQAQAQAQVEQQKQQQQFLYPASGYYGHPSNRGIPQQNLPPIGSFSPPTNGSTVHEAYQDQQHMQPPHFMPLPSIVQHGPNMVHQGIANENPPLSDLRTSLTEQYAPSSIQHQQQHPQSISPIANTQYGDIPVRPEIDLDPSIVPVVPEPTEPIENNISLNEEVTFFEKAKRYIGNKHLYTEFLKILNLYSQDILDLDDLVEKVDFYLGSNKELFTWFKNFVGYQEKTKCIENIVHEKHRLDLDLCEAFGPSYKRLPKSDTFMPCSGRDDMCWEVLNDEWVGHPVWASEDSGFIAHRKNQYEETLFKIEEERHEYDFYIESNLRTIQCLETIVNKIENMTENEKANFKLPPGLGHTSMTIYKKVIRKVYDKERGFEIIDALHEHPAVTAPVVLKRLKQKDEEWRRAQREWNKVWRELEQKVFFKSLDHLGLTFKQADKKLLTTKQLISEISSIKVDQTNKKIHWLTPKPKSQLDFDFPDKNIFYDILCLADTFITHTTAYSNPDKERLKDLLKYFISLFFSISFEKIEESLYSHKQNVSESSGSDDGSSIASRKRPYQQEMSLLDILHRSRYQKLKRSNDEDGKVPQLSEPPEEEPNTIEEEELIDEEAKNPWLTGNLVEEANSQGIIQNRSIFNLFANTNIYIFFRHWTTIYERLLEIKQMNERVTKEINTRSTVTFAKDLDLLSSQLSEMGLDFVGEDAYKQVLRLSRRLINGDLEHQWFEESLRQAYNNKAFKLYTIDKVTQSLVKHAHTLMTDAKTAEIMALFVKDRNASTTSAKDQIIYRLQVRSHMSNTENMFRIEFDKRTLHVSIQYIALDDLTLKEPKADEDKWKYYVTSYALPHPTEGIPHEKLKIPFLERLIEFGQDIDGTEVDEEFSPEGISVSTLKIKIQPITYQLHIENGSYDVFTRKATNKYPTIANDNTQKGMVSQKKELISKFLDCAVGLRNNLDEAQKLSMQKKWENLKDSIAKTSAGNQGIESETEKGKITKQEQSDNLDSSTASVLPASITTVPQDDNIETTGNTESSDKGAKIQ

[1] = target: the molecule itself
Rco1 = target: B1; conditions: both partners purified
Rpd3 = target: B2; conditions: both partners purified

binding result (Sin3) | binding result (Rco1) | binding result (Rpd3) | Binder | stoichiometry N [1]
binds |  |  | B1 | 2
binds | binds |  | B2 | 
binds | binds | binds | B3 | 
